Test system: Pho4 (yeast)
Test: EMSA
Conditions: EMSA: 10 mM Tris-HCl pH 7.6, 1 mM MgCl2, 60 mM KCl, 3 mg/ml BSA, 1% glycerol, 1% Ficoll, 1 mM DTT, 1 ug poly(dI-dC), 100 ng calf thymus DNA, 20 ul, 10 min …

601 free DNA with Pho4 site
Kd: 240 nM

From article PMC6441497
